Test results as given in paper PMC10637977, “The preferential transport of NO3^− by full-length Guillardia theta anion channelrhodopsin 1 is enhanced by its extended cytoplasmic domain” (The Journal of Biological Chemistry, 2023).

Biological target: the molecule itself
Test: SDS-PAGE and Western blot; P. pastoris cells expressing the protein compared with a negative control; immunoblotting with an anti-His tag antibody; bands assigned to monomer and dimer by molecular mass

B1: full-length Guillardia theta anion channelrhodopsin 1 (GtACR1_full) (natural protein, UniProt L1J207 1-438, looked up)
chain: MSSITCDPAIYGEWSRENQFCVEKSLITLDGIKYVQLVMAVVSACQVFFMVTRAPKVPWEAIYLPTTEMITYSLAFTGNGYIRVANGKYLPWARMASWLCTCPIMLGLVSNMALVKYKSIPLNPMMIAASSICTVFGITASVVLDPLHVWLYCFISSIFFIFEMVVAFAIFAITIHDFQTIGSPMSLKVVERLKLMRIVFYVSWMAYPILWSFSSTGACIMSENTSSVLYLLGDALCKNTYGILLWATTWGLLNGKWDRDYVKGRNVDGTLMPEYEQDLEKGNTERYEDARAGETFEVKMFGRTLTSVRRSRRRPRRDIVFNGGDRNRLSDSDSERRRRRKKYQRKDSESENSSDESMGSEHEKNRRKGKKKNKENRRSAPPKEDSTSDTLRDAEIKRIMDLMKRNAGSDIPGLDGDGRLRDDGGLIPTRNEEHDDSA
modifications: all-trans-retinal bound to Lys238 via a protonated Schiff base linkage
notes: Guillardia theta anion channelrhodopsin 1 (GtACR1), full length, 438 amino acids (rhodopsin domain plus cytoplasmic domain, CPD); Calculated molecular mass 51.0 kDa; Details of construction and expression are in the Supporting information; also called full-length GtACR1; source: P. pastoris SMD1168H, recombinant expression (pPICZ B vector, codon-optimised gene); not shown: His8, C-terminal, kept
stoichiometry N: 2

B2: GtACR1 without the CPD (GtACR1_ΔCPD), C-terminal eight-histidine tag (domain or fragment, Guillardia theta, UniProt L1J207 1-295, looked up)
chain: MSSITCDPAIYGEWSRENQFCVEKSLITLDGIKYVQLVMAVVSACQVFFMVTRAPKVPWEAIYLPTTEMITYSLAFTGNGYIRVANGKYLPWARMASWLCTCPIMLGLVSNMALVKYKSIPLNPMMIAASSICTVFGITASVVLDPLHVWLYCFISSIFFIFEMVVAFAIFAITIHDFQTIGSPMSLKVVERLKLMRIVFYVSWMAYPILWSFSSTGACIMSENTSSVLYLLGDALCKNTYGILLWATTWGLLNGKWDRDYVKGRNVDGTLMPEYEQDLEKGNTERYEDARAGET
modifications: all-trans-retinal bound to Lys238 via a protonated Schiff base linkage
notes: Guillardia theta anion channelrhodopsin 1 (GtACR1) with the C-terminal cytoplasmic domain (CPD, 143 amino acids) deleted; composed of 295 amino acids; Calculated molecular mass 34.4 kDa; also called CPD-deleted GtACR1; GtACR1 rhodopsin domain; source: P. pastoris SMD1168H, recombinant expression (pPICZ B vector, codon-optimised gene); not shown: His8, C-terminal, kept
stoichiometry N: 2
